T1: Histidine-tagged human Siglec-5 (NovoProtein) (human, UniProt O15389 17-434, limits assumed)
T1 construct: Bought soluble protein; also called His-tagged human Siglec-5; not shown: histidine tag
T1 sequence: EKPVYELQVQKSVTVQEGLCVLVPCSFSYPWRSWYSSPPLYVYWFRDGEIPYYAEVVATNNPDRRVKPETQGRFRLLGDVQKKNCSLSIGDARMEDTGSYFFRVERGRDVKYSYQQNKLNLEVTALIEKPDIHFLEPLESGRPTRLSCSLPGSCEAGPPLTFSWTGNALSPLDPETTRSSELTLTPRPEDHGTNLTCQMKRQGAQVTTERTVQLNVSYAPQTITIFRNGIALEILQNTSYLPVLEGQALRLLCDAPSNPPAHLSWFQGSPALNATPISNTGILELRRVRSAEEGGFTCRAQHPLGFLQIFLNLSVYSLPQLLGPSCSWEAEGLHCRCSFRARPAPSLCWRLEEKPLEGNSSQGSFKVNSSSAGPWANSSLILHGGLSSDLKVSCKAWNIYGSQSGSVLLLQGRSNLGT

T2: human Siglec-14 (human, UniProt Q08ET2 17-396)
T2 construct: also called CHO-S14; CHO-S hSiglec-14
T2 sequence: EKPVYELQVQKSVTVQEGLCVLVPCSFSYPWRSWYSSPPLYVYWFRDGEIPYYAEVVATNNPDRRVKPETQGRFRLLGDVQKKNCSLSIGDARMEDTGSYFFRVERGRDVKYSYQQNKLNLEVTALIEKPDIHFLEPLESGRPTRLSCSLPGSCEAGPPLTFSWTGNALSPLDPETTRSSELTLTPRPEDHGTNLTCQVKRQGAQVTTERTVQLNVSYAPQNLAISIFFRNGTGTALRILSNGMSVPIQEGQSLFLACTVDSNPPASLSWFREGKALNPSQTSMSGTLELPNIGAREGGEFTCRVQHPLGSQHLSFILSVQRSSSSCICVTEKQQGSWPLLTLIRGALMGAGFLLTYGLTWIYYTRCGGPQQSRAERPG

B1: S5-183 (antibody, V domains shown)
VH: QAYLQQSGPGLVAPSQSLSITCTVSGFSVTSYGVSWVRQPPGKGLEWLGVIWGDGSTNYHSDLISRLSISKDNSKSQVFLKLNSLQIADTATYYCARPRAFYYGSRGYWYFDVWGTGTTVAVSS
VL: DIVMTQSPASLSASVGETVTITCRASENIYSYLAWYQQKQGKSPQLLVYNTKTLVEGVPSRFSGSGSDTQFSLKINSLQPEDFGTYYCQHHYGPPPTFGTGTKLELK
notes: Mouse-derived variable domains; expressed in mammalian cells as full antibody; hIgG1 isotype control
B2: S5-202 (antibody, V domains shown)
VH: B1 VH with F27L, V29L, D62A, I87T, A88D, R97K, R99G, G107Y, A121T
VL: DIQMTQAHKVMSTSVGDRVSITCKASQDVSTAVAWYQQKPGQSPKLLIYSASYRYTGVPDRFTGSGSGTDFTFTISSVQAEDLAVYYCQQHYSPPPTFGGGTRREIK
notes: Mouse-derived variable domains; expressed in mammalian cells as full antibody; also called S5-PN202
B3: S5-176 (antibody, V domains shown)
VH: QAYLQQSGPELVKPGASVKVSCKASGYSFTDYNIYWVKQSHGKSLEWIGYFDPYNGGTNYNQRFKDKATLTVDKSSSTAFMQLNSLTSEDSAVYYCAREGYGYDDREWFAYWGQGTLVTVSA
VL: DIVMTQSPSSLAASVGEKVTMSCKSSQSLLYSTNQMTYLAWYQQKPGQSPKLLIFWASTRESGVPDRFTGSGSGTDFTLTISSVKAEDLAVYYCHQFYSYPFTFGSGTRWEIK
notes: as for B1
B4: S5-182 (antibody, V domains shown)
VH: QAYLQQSGAELVKPGASVKLSCKASGYTFTSYWLHWVKQRPGQGLEWIGMIHPNSGSTDYNERFKSKATLIVDKSSSTAYMQLSSLTSEDSAVYYCAKTFYYFDYWGQGTALTVSS
VL: DVVMTQSPSSMYASLGERVTITCKASQDINSYLSWFQQKPGKSPKTLIYRANRLVDGVPSRFSGSGSGQDYSLTISSLEYEDMGIYYCLQYDELYTFGGGTKLEIK
notes: as for B1

Numbering of substitutions follows the chain as printed.

One assay addresses T1, Histidine-tagged human Siglec-5 …. The assay is described as follows: array SPR, antibody immobilized, His-tagged human Siglec-5 (0-500 nM) in solution; apparent affinity. The procedure:
The apparent binding affinities of the anti-Siglec-5 antibodies were measured by array surface plasmon resonance (SPR), according to standard techniques (Abdiche, et al. (2016) MAbs 8:264-277). Briefly, anti-Siglec-5 antibodies were immobilized on a HC 30M chip at four different densities, at antibody concentration of 10 μg/mL, 2.5 μg/mL, 0.63 μg/mL, and 0.16 μg/mL. Varying concentrations (0-500 nM) of Histidine-tagged human Siglec-5 or cynomolgus Siglec-5 (NovoProtein) were then bound to the captured anti-Siglec-5 surface (5 min injection time, 15 min dissociation time) in HBS-EP⁺/1 mg/mL BSA running buffer. Kinetic analysis was performed using Carterra software to extract association and dissociation rate constants (kₐ and kd, respectively) for each antibody. Apparent affinity constants (KD) were calculated from the ratio kd/kₐ. None of the anti-Siglec-5 antibodies bound to cynomolgus Siglec-5 protein.
Regarding B1, the Kd was found to be 61 nM, the koff is 0.0013 s⁻¹ and the kon amounted to 21000 M⁻¹ s⁻¹.

As for B2, the Kd was determined as 31 nM, the koff was found to be 0.0011 s⁻¹ and the kon was determined as 36000 M⁻¹ s⁻¹.

B3: the Kd came to 1.1 nM, the off-rate constant (koff) came out at 0.00051 s⁻¹ and the kon worked out at 470000 M⁻¹ s⁻¹.

As for B4, the Kd stood at 5.3 nM, the koff worked out at 0.00085 s⁻¹ and the kon amounted to 160000 M⁻¹ s⁻¹.

Another assay deals with T2, human Siglec-14. The assay is described as follows: FACS, CHO cells stably transfected with human Siglec-14 (CHO-S14), fluorescent secondary antibody; y-axis Binding (Fold over background); antibody concentration not shown. How it is done: The anti-Siglec-5 antibodies were evaluated for their ability to bind to CHO cells which were stably transfected with human Siglec-5 (CHO-S5) or human Siglec-14 (CHO-S14). The anti-Siglec-5 antibodies were also evaluated for their ability to bind to primary human neutrophils. Cells were incubated with various dilutions of the anti-Siglec-5 antibodies for 30 minutes on ice in the dark, followed by a 30-minute incubation with a fluorescently-conjugated anti-human IgG secondary antibody. Cells were washed twice in FACS buffer (PBS+2% FBS, 2 mM EDTA), and flow cytometry was performed on a BD FACS Canto. Data were analyzed using FlowJo software (Ashland, Oreg.). In the figures, “hIgG1” and “mIgG1” refer to isotype control antibodies, and “S5/14 1A5” refers to a commercially available antibody that binds both Siglec-5 and Siglec-14 (BioLegend, clone 1A5).
With B1, the binding result is “no binding”.

B2: the binding result is “no binding”.

For B3, the binding result is reported as “no binding”.

Turning to B4, the binding result was “no binding”.
